Measurements: article PMC8968665, “Verteporfin is a substrate-selective γ-secretase inhibitor that binds the amyloid precursor protein transmembrane domain” (The Journal of Biological Chemistry, 2022)

Assays:
[1] = target: C99 (C-terminal 99 amino acid fragment of the human amyloid precursor protein), as used for IM-MS (human) (UniProt P05067); experiment: native MS; native ion mobility-mass spectrometry (IM-MS); 20 uM C99 in 100X CMC LMPG or DDMB micelles, 200 mM ammonium acetate pH 4.5; DMSO or 0-50 uM verteporfin, incubated in the dark overnight; micelles dissociated in the instrument
[2] = target: T1, γ-secretase cleavage of C100-Flag (C99) (Homo sapiens, UniProt P05067); experiment: γ-Secretase assay, C100-FLAG cleavage, AICD by anti-Flag Western blot; type: biochemical; settings: 30 nM LY411,575, 2 µM C100-Flag, 1 nM γ-secretase, Fig. S6A lane 7
T1 construct: C100 is C99 with an added N-terminal Met residue; made in house
T1 sequence (P05067 672-770 limits assumed): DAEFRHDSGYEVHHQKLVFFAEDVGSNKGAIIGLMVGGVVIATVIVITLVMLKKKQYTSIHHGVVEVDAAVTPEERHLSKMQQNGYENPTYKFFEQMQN
Experimental: The γ-secretase-dependent proteolysis assays with both substrates (C100-FLAG and HexaHis Notch 1 JM/TM) were performed in a weak zwitterionic detergent (CHAPSO, 3-[(3- cholamidopropyl)dimethylammonio]-2-hydroxy-1-propanesulfonate) solubilized conditions ([79], [80]). C100 is C99 with an added N-terminal Met residue. […] Proteolytic reactions were initiated by adding purified substrates (either C100-FLAG(79) or HexaHis-Notch 1 JM/TM(77)) and incubating at 37 °C (16 h for C100Flag and 4 h for HexaHis-Notch 1 JM/TM). Reactions were quenched with SDS, and the cleaved intracellular domain products (AICD-FLAG released from C100-FLAG or truncated intracellular domain (NICD) released from the proteolysis of Hexa-His Notch 1 JM/TM) were visualized by Western blot using specific primary antibodies, anti-FLAG antibody for FLAG-tagged AICD, and neoepitope-specific anti-V1744 antibody for NICD ([80], [83], [84]).

C99 (C-terminal 99 amino acid fragment of the human amyloid precursor protein), as used for IM-MS, sequence (P05067 672-770): as the sequence (P05067 672-770 limits assumed) above

Row | stoichiometry N [1] | C100-Flag cleavage efficiency (Western blot) [2] | Compound
1 | 2 | – | C99 (C-terminal 99 amino acid fragment of the human amyloid precursor protein), as used for IM-MS (from UniProt P05067 672-770) (domain or fragment)
2 | – | fully | C[C@H](NC(=O)[C@@H](O)c1cc(F)cc(F)c1)C(=O)N[C@@H]1C(=O)N(C)c2ccccc2-c2ccccc21 [LY411,575]
